Data set [1] can be described thus: SAR3419 Phase I clinical trials, pharmacokinetics and toxicity. The class given is in vivo, human. The source says:
SAR3419 is a DM4-containing antibody drug conjugate that comprises the humanized antibody Hu-B4 (humanized mouse IgG1 MAb targeting CD19) and the SPDB linker. Phase I clinical trials were initiated in patients having relapsed or refractory CD19+B cell Non-Hodgkins Lymphoma.

The format of data set [2] is in vivo. The settings on record: rabbit, 3 weekly doses. On the procedure: Maytansinoid conjugates with different linker-maytansinoid formats were evaluated for induction of corneal ocular toxicity in a preclinical rabbit model. Hallmarks of corneal epithelial damage such as migration of pigmented basal epithelial cells distal from the limbus, corneal pannus, and epithelial erosion were assessed following 3 weekly doses.

Data set [3] in a line: IMGN242 pharmacokinetics and toxicity in human clinical trials. Type of data set: in vivo.
The nature of data set [4]: IMGN242 preclinical pharmacokinetic studies, cynomolgus monkeys. The class given is in vivo. On the procedure: (§1) IMGN242 is an antibody drug conjugate for the treatment of CanAg-expressing tumors. The compound is made by conjugating the potent cytotoxic maytansinoid, DM4, to the monoclonal antibody, huC242. Forty-five patients have been treated with IMGN242 at 8 different dose levels (18 to 297 mg/m2) in two clinical trials. […] The determined half-life in patients was similar to that predicted for IMGN242 from preclinical pharmacokinetic studies (t1/2 about 5 days in mice and 4 days in cynomolgus monkeys).

Data set [5] can be described thus: IMGN242 preclinical pharmacokinetic studies, mice. The class given is in vivo. Here is the method:
as §1

[6] abbreviates: patients, 160 mg/m^2 and 208 mg/m^2.
Setting [7] is: patients with low circulating CanAg (<1000 U/mL).

Read-outs that look alike come from different tables or passages of the source.

SAR3419: in data set [1] (setting [6]), the elimination result is “eliminated rapidly” and the exposure versus dose entry is “increased with dose”. For the same molecule, the ocular toxicity entry in data set [1] (some patients, 160 mg/m^2 or 208 mg/m^2) is “displayed ocular toxicity”.
As for SMCC-DM1, the corneal ocular toxicity entry in data set [2] (dose 8 mg/kg), in data set [2] (dose 10 mg/kg), in data set [2] (dose 12 mg/kg) and in data set [2] (dose 16 mg/kg) was “−” throughout.

B1: IMGN242 (conjugate, chains of the INN, looked up)
VH: QVQLVQSGAEVKKPGETVKISCKASDYTFTYYGMNWVKQAPGQGLKWMGWIDTTTGEPTYAQKFQGRIAFSLETSASTAYLQIKSLKSEDTATYFCARRGPYNWYFDVWGQGTTVTVSS
VL: DIVMTQSPLSVPVTPGEPVSISCRSSKSLLHSNGNTYLYWFLQRPGQSPQLLIYRMSNLVSGVPDRFSGSGSGTAFTLRISRVEAEDVGVYYCLQHLEYPFTFGPGTKLELK
modifications: maytansinoid DM1 payload (mertansine)
For the molecule B1, in data set [3] (patients), the Cmax versus dose entry was “increased proportionally with increasing dose” and the “effect of circulating CanAg levels on Cmax” value is reported as “not significantly affected”. In addition, the increase in clearance in data set [3] (patients with high CanAg (>1000 U/mL) compared to low (<1000 U/mL)) fell in the range of 3 to 5 fold. In data set [3] (setting [7]), the “duration of initial rapid distribution phase” value is reported as “about 48 hours” and the “pharmacokinetic profile in plasma” value was “two-phase pharmacokinetic profile”. Further, in data set [3] (patients with low circulating CanAg, preliminary analysis), the elimination phase half-life entry is listed as “about 5 days”. The “incidence of possible study drug-related ocular toxicities” value in data set [3] (patients with low plasma CanAg (<1000 U/ml), dose 168 mg/m2) is “notable incidence”. In addition, the “dose limiting toxicities (DLTs)” value in data set [3] (patients, 18 to 297 mg/m2) was “decreased visual acuity, corneal deposits and keratitis”. Moreover, the t1/2 in data set [4] is given as around 4 days. Besides, the t1/2 result in data set [5] is reported as “about 5 days”.
